Measurements from patent US11951131B2, “Anti-SLAMF7 chimeric antigen receptors” (The United States of America, as represented by the …, priority 2018, dated 2024).

Legend:
Type in all cases: cell-based, human
H929 = test: IFN-gamma ELISA, CAR T cells with H929 target cells; conditions: Table C
Description: (§1) One-hundred thousand SLAMF7^+ or SLAMF7-negative target cells were combined with 100,000 CAR-transduced T cells in duplicate wells of a 96 well round bottom plate in 200 µL of AIM V™ medium (Invitrogen) plus 5% human serum. The plates were incubated at 37° C. for 18-20 hours. Following the incubation, ELISAs (enzyme-linked immunosorbent assays) for IFNγ were performed by using standard methods.
(§2) All values are pg/mL of IFN-gamma. T cells that were either untransduced or transduced with one of the indicated CARs were cultured with target cells overnight, and a standard IFN-gamma ELISA was performed on the culture supernatant.

NGFR-K562 = test: IFN-gamma ELISA, CAR T cells with NGFR-K562 target cells
Description: (§3) MM.1S is a SLAMF7^+ multiple myeloma cell line that was obtained from American Type Culture Collection (ATCC). A549 is a BCMA-negative lung cancer cell line (ATCC). TC71 is a BCMA-negative sarcoma cell line. CCRF-CEM, 293T, and A549 are SLAMF7-negative cell lines (ATCC). COL0207, HepG2, U251, Panc10.05, and TC71 are […] that were kind gifts from Dr. Steven Rosenberg, National Cancer Institute. SLAMF7-K562 are K562 cells (ATCC) which were transduced with the gene for full-length SLAMF7. SLAMF7-RPMI are RPMI8226 cells (ATCC) which were transduced with the gene for full-length SLAMF7. NGFR-K562 are K562 cells which were transduced with the gene for low-affinity nerve growth factor (Kochenderfer et al., J. Immunother., 32(7): 689-702 (2009)). All of the human samples mentioned were obtained from patients enrolled in IRB-approved clinical trials at the National Cancer Institute.
as §1
(§4) The T cells columns indicate whether T cells were transduced with Luc90-CD828Z, Luc63-CD828Z, or were untransduced. The % CAR^+ in Table B-1 was determined by staining the T cells with Protein L. Except for the % CAR^+ column, all values are pg/mL of IFN-gamma. T cells that were either untransduced or transduced with one of the indicated CARs were cultured with target cells overnight and a standard IFN-gamma ELISA was performed on the culture supernatant.
as §2
(§5) The values in the cells are pg/mL of IFN-gamma. T cells that were either untransduced or transduced with one of the indicated CARs were cultured with target cells overnight, and a standard IFN-gamma ELISA was performed on the culture supernatant. The concentrations of 0, 50, or 200 ng/mL at the top of each column indicates the concentration of soluble SLAMF7 added to all T cell plus target cell overnight cultures in that column. The soluble SLAMF7 was added at the beginning of the overnight culture.

SLAMF7-RPMI = test: IFN-gamma ELISA, CAR T cells cultured overnight with SLAMF7-RPMI target cells
Description: as §3, §1, §4, §2, §5

T cells only = test: IFN-gamma ELISA, T cells only (no target cells)
Description: as §1, §4, §2, §5

MM.1S = test: IFN-gamma ELISA, CAR T cells with MM.1S target cells; conditions: Table C
Description: as §3, §1, §2

SLAMF7^+ target cells = test: IFN-gamma ELISA and functional assays; conditions: 4-1BB-containing CAR compared to Luc90-CD828Z (Table C)
Description: as §1
CAR-expressing T cells cultured alone produced very low levels of IFNγ. IFNγ production of T cells expressing a CAR with a 4-1BB moiety, Luc90-CD8BBZ, was compared to IFNγ production of T cells expressing Luc90-CD828Z (Table C). […] Low levels of soluble SLAMF7 are found in the serum of some MM patients (see Tai, et al., Blood, 112(4): 1329-1337 (2008)). IFNγ ELISA assays were conducted to determine if adding SLAMF7 to cultures of anti-SLAMF7 CAR T cells plus target cells could block IFNγ release by the CAR T cells (Table D). IFNγ release by the CART cells was used as a measure recognition of the SLAMF7^+ target cells by the CAR T cells. The concentrations of soluble SLAMF7 added to the cultures were similar to those found in the blood of patients. Blocking of SLAMF7^+ target cell recognition by the soluble SLAMF7 was not observed. Also, activation of the anti-SLAMF7 CAR T cells by the soluble SLAMF7 was not observed.

CCRF-CEM = test: IFN-gamma ELISA, CAR T cells with CCRF-CEM target cells; conditions: Table C
Description: as §3, §1, §2

SLAMF7-K562 = test: IFN-gamma ELISA, CAR T cells cultured overnight with SLAMF7-K562 target cells
Description: as §3, §1, §4, §2

COLO 205 = test: IFN-gamma ELISA, CAR T cells with COLO 205 target cells; conditions: Table B-1
Description: as §3
(§6) One-hundred thousand SLAMF7^+ or SLAMF7-negative target cells were combined with 100,000 CAR-transduced T cells in duplicate wells of a 96 well round bottom plate in 200 µL of AIM V™ medium (Invitrogen) plus 5% human serum. […]
(§7) The T cells columns indicate whether T cells were transduced with Luc90-CD828Z, Luc63-CD828Z, or were untransduced. The % CAR^+ in Table B-1 was determined by staining the T cells with Protein L. Except for the % CAR^+ column, all values are pg/mL of IFN-gamma. […]

Panc 10.05 = test: IFN-gamma ELISA, CAR T cells with Panc 10.05 target cells; conditions: Table B-2
Description: as §3, §6, §7

TC71 = test: IFN-gamma ELISA, CAR T cells with TC71 target cells; conditions: Table B-2
Description: as §3, §6, §7

U251 = test: IFN-gamma ELISA, CAR T cells with U251 target cells; conditions: Table B-2
Description: as §3, §6, §7

HepG2 = test: IFN-gamma ELISA, CAR T cells with HepG2 target cells; conditions: Table B-1
Description: as §3, §6, §7

A549 = test: IFN-gamma ELISA, CAR T cells with A549 target cells; conditions: Table B-2; SLAMF7-negative
Description: as §3, §6, §7

293T = test: IFN-gamma ELISA, CAR T cells with 293T target cells; conditions: Table B-1; SLAMF7-negative cell line
Description: as §3, §6, §7

[1] = Table D, soluble SLAMF7 added 0 ng/ml
[2] = Table D, soluble SLAMF7 added 50 ng/ml
[3] = Table D, soluble SLAMF7 added 200 ng/ml

With “Luc90-CD8BBZ: anti-SLAMF7 CAR (SEQ ID NO: 29): Luc90-CD828Z with the CD28 moiety replaced with a 4-1BB moiety” the “IFN-gamma, target cells H929” value (H929) was 856 pg/mL, the “IFN-gamma, target cells NGFR-K562” value (NGFR-K562; Table C) was 434 pg/mL and the “IFN-gamma, target cells SLAMF7-RPMI8226” value (SLAMF7-RPMI; Table C, overnight culture) was 19713 pg/mL. The “IFN-gamma, T cells only” value (T cells only; Table C) was 531 pg/mL, the “IFN-gamma, target cells MM.1S” value (MM.1S) was 5101 pg/mL and the background cytokine release (SLAMF7^+ target cells) was “Generally higher background cytokine release”. For the same molecule, the “IFN-gamma, target cells CCRF-CEM” value (CCRF-CEM) was 278 pg/mL and the “IFN-gamma, target cells SLAMF7-K562” value (SLAMF7-K562; Table C) was 16697 pg/mL.

B1: Luc63-CD828Z: anti-SLAMF7 CAR (SEQ ID NO: 28): identical to Luc90-CD828Z except scFv from humanized Luc63 antibody (protein)
chain: MALPVTALLLPLALLLHAARPDIQMTQSPSSLSASVGDRVTITCKASQDVGIAVAWYQQKPGKVPKLLIYWASTRHTGVPDRFSGSGSGTDFTLTISSLQPEDVATYYCQQYSSYPYTFGQGTKVEIKGSTSGSGKPGSGEGSTKGEVQLVESGGGLVQPGGSLRLSCAASGFDFSRYWMSWVRQAPGKGLEWIGEINPDSSTINYAPSLKDKFIISRDNAKNSLYLQMNSLRAEDTAVYYCARPDGNYWYFDVWGQGTLVTVSSFVPVFLPAKPTTTPAPRPPTPAPTIASQPLSLRPEACRPAAGGAVHTRGLDFACDIYIWAPLAGTCGVLLLSLVITLYCNHRNRSKRSRLLHSDYMNMTPRRPGPTRKHYQPYAPPRDFAAYRSRVKFSRSADAPAYQQGQNQLYNELNLGRREEYDVLDKRRGRDPEMGGKPRRKNPQEGLYNELQKDKMAEAYSEIGMKGERRRGKGHDGLYQGLSTATKDTYDALHMQALPPR
For B1, the “IFN-gamma, target cells COLO 205” value (COLO 205) was 29 pg/mL, the “IFN-gamma, target cells NGFR-K562” value (NGFR-K562; Table B-2, SLAMF7-negative) was 78 pg/mL and the “IFN-gamma, target cells NGFR K562 0 ng/ml” value (NGFR-K562; [1]) was 191 pg/mL. For the same molecule, the “IFN-gamma, target cells NGFR K562 50 ng/ml” value (NGFR-K562; [2]) was 98 pg/mL, the “IFN-gamma, target cells NGFR K562 200 ng/ml” value (NGFR-K562; [3]) was 83 pg/mL and the “IFN-gamma, target cells SLAMF7-RPMI” value (SLAMF7-RPMI; Table B-1, overnight culture, ELISA on supernatant) was 8123 pg/mL. The “IFN-gamma, target cells SLAMF7 RPMI 0 ng/ml” value (SLAMF7-RPMI; [1]) was 3495 pg/mL, the “IFN-gamma, target cells SLAMF7 RPMI 50 ng/ml” value (SLAMF7-RPMI; [2]) was 2.873 ng/mL and the “IFN-gamma, target cells CD319 RPMI 200 ng/ml” value (SLAMF7-RPMI; [3]) was 3083 pg/mL. The “IFN-gamma, target cells Panc 10.05” value (Panc 10.05) was 53 pg/mL, the “IFN-gamma, target cells TC71” value (TC71) was 113 pg/mL and the “IFN-gamma, target cells U251” value (U251) was 46 pg/mL. For the same molecule, the “IFN-gamma, T cells only” value (T cells only; Table B-2) was 71 pg/mL, the “IFN-gamma, T cells 0 ng/ml” value (T cells only; Table D, no target cells, soluble SLAMF7 0 ng/ml) was 20 pg/mL and the “IFN-gamma, T cells 50 ng/ml” value (T cells only; Table D, no target cells, soluble SLAMF7 50 ng/ml) was 22 pg/mL. The “IFN-gamma, T cells 200 ng/ml” value (T cells only; Table D, no target cells, soluble SLAMF7 200 ng/ml) was 30 pg/mL, the “IFN-gamma, target cells HepG2” value (HepG2) was 33 pg/mL and the “IFN-gamma, target cells A549” value (A549) was 76 pg/mL. For the same molecule, the “IFN-gamma, target cells SLAMF7-K562” value (SLAMF7-K562; Table B-1, overnight culture) was 7106 pg/mL, the “IFN-gamma, target cells SLAMF7-K562” value (SLAMF7-K562; Table B-2, overnight culture) was 7524 pg/mL and the “IFN-gamma, target cells 293T” value (293T) was 38 pg/mL.
